Reference: the RNAGym collection of RNA variant scans (doi:10.1073/pnas.2313332121)

B1: TPR t1 (parent)
chain: GACCAAUCUGCCCUCAGAGCUCGAGAACAUCUUCGGAUGCAGAGGAGGCAGGCUUCGGUGGCGCGAUAGCGCCAACGUCCUCAACCUCCAAUGCAUCCCACCACAUGAUGAUGCCUGAAGAGCCUUGGUUUUUUG

Variants of: B1
Assay: polymerase ribozyme fitness, log enrichment relative to wild type (log ratio); higher = more active; in vitro selection for triplet polymerase activity
Summary of the method: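 Libraries of mutants in each subunit of a heterodimeric triplet polymerase ribozyme were generated by PCR and transcribed. In triplicate, each went through one in vitro selection round: annealing with biotinylated primer, partner subunit and triplets; frozen incubation at −7 °C; gel excision of extended constructs; streptavidin-bead capture; RT-PCR. Fitness, taken from Illumina sequencing of input and output libraries, is the logarithm of a genotype's enrichment over wild-type enrichment, averaged across replicates with inverse-variance weights. The logarithm is base 2, and genotypes needed ≥10 input reads and ≥1 read per output to be kept.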

Row | Variant | polymerase ribozyme fitness (log ratio)
1 | G36A G42U C88A G113U | -3.82
2 | G36A G42U C53U U55G C86U G110U | -6.5
3 | G36U G44A G47A G48U G69U C82G A121C | 0.343
4 | A37U C64U | -1.67
5 | A37C G110C C124A U133A | -3.68
6 | G36C G69U U132C | -0.866
7 | G36U C72U | -1.51
8 | G36C C98U U129A | -3.81
9 | G36C C40A A74C G93C | -2.45
10 | G36C A50U C62U C101G | -4.84
11 | A37G G120A | 0.248
12 | A37G C53A G63U U125A | -3.34
13 | G36A G42A U54G C72U A75U | -2.79
14 | G36U G63A | -1.69
15 | G36U A74G A105U | -3.55
16 | G36U G47U G61A | -4.11
17 | G36A G52C C70G | -5.49
18 | G36C A66C U125G | -2.72
19 | G36U C73U A119U | -1.63
20 | A37G G60A G127A | -2
21 | G36C A37U C82A U116G G120C | -3.26
22 | G36C C53U U55G G113C G120C | -2.92
23 | A37U C56A | -1.32
24 | A37U C56U | -0.686

Row | Variant | polymerase ribozyme fitness (log ratio)
25 | A37U C56G C72A | -2.62
26 | G36A C70A C114A | -5.75
27 | A37U A50U G63U G120U U126A U130A | -5.22
28 | A37C G120A G122A | -1.07
29 | G36U A66G G69U U87G | -2.53
30 | A37U A50C C124G | 1.16
31 | A37G U131G | -1.11
32 | G36U A83U | -1.49
33 | G36C C53U G61A U112A G113U | -1.83
34 | G36A C115U | -1.88
35 | G36U A90G | -0.944
36 | A37C C53U U81G | -2.81
37 | G36U G110C | -4.93
38 | A37C G60U U81A A121C | 0.858
39 | A37C U116G | -2.29
40 | A37U C64U U132C | -0.703
41 | G36U C104A | -2.99
42 | G36A U78A C82G U125G | -2.73
43 | A37G G63U U81A | -2.09
44 | A37G A43U G47U C101G | -4.64
45 | G36A G63A | -1.78
46 | G36U A74G A83U C101G | -3.95
47 | G36A C64U | -0.622
48 | G36U C56G C82U G113A | -2.31

Row | Variant | polymerase ribozyme fitness (log ratio)
49 | A37U A43G A50C G52U G110A | -5.79
50 | A37C G58A C72G U78C G113C | -3.84
51 | A37U A74G A90C | -2.26
52 | A37G G61C | -1.44
53 | A37G G61A | -0.324
54 | A37G G61U | -1.33
55 | A37G C86A | -1.81
56 | A37U C40U U87G | -1.01
57 | G36A G42A A43C C53U | -3.85
58 | G36C A37G G60C A121U | 0.419
59 | A37U A41G | -0.165
60 | A37C C53G C62A | -1.57
61 | G36C U38C G71U | -4.73
62 | A37G G69A | -2.42
63 | G36A C72U U116C | -1.78
64 | G36U G71A G120U | -1.04
65 | A37U C53G C89U C102U U131A | -2.62
66 | A37U A43G C86G | -2.33
67 | A37U A41U C79G | -4.3
68 | A37U A50G U54G | -0.818
69 | A37G G57A G110C | -5.28
70 | A37C G45C G71C U130G U131C G135U | -3.26
71 | A37U C62U U96G | -0.183
72 | A37C C123A | -0.297

Row | Variant | polymerase ribozyme fitness (log ratio)
73 | A37C A43C C53A G71C C86U A91C | -6.26
74 | G36A G42A U54G | -3.13
75 | G36A C102U | -3.67
76 | G36A G71A U87C C123G | 0.907
77 | G36U U125A | -1.4
78 | A37C G63U | -1.28
79 | G36A U109A | -5.64
80 | G36U C102U | -2.93
81 | G36U G77C A91U | -4.63
82 | A37C G52A A83C U116C | -2.17
83 | A37C C53U | -0.73
84 | A37C G52C G60A C86U | -2.95
85 | G36U U59A G93C G120C | -0.759
86 | A37C G120U | 0.436
87 | G36C U112G G117A | -3.75
88 | A37U C40A C94U | -4.04
89 | G36C C123U | -0.107
90 | A37C G42C G122A | -2.78
91 | G36U G60A | -1.61
92 | A37U C56U C72U | -0.343
93 | G36C C82G U126C | -2.57
94 | G36A G60A C85U C124G | 0.468
95 | G36A G47C C124U | -0.979
96 | G36A U54A U112A | 1.22

Row | Variant | polymerase ribozyme fitness (log ratio)
97 | A37C G44U C62A | -2.41
98 | A37U A66C C76U | -2.83
99 | G36U C101U U116C | -2.19
100 | G36U A105C G135U | -4.66
101 | G36U G61U | -0.625
102 | G36U G61C | -2.58
103 | G36U C56A U132A | -1.83
104 | A37G G69U C73U U87C C104A U131G | -4.34
105 | A37C C98U | -1.41
106 | G36A U59G G69A C94U G113A | -4.53
107 | G36A C86A C115A G120U | -2.65
108 | G36U C53U A105C | -2.88
109 | A37G C72U | -0.261
110 | A37C C56U | 0.093
111 | G36A G110A | -2.64
112 | A37C C72G C123G | 0.506
113 | G36U U54A C72A | -0.869
114 | A37U A75U | -0.0341
115 | A37C C76A | -1.6
116 | A37C G107A C123A | -5.8
117 | G36C G63U A95C A111U | -6.67
118 | G36U G61A G93C G120C | -0.0777
119 | G36A C73U G127C | -2.76
120 | A37G C79G | -1.49

Row | Variant | polymerase ribozyme fitness (log ratio)
121 | G36C C56U C89G G117U | -7.02
122 | G36U A68C C70U U87A G117U | -5.69
123 | G36A G45C C49A C73A | -0.979
124 | A37C C97U | -1.69
125 | A37U A43U G93C U116A | -6.51
126 | G36C C102A | -3.12
127 | A37G G71U C114A A119C | -5.35
128 | A37C A43G | -2.56
129 | A37C G39C G63A | -4.27
130 | G36U G47U U59A G117C | -6.9
131 | G36U C53G C56A | -1.45
132 | G36C C94U | -1.47
133 | G36A C72A C97U A121G | 1.78
134 | G36U A84C G110A | -2.43
135 | G36U G71A | -1.86
136 | G36U A50G C114A U132A | -2.9
137 | A37G U55G C88U A105C G120C U125C | -1.81
138 | A37C G51C | -4.02
139 | A37C G45C A111G C124U | -2.52
140 | A37C C73A A118U U125G | -0.0605
141 | G36A C73U | -0.561
142 | G36A C73A | -1.1
143 | G36A U125G | -1.83
144 | A37G C53A G57U | 0.602

Row | Variant | polymerase ribozyme fitness (log ratio)
145 | A37U C40G G63A A66G C82A U109G | -6.22
146 | A37G C62A C85U | -5.14
147 | A37G A43U G44U C72U U87C C104U U129G | -2.31
148 | A37U C49G G77U G120C | 0.00604
149 | G36U G60C A100U | -2.77
150 | G36A U54A C89G C101G | -5.15
151 | G36U G77A G113U | -3.33
152 | G36U G71U U87A C104A G113U C115U U130A | -7.12
153 | A37G C88A A91U | -4.17
154 | A37G G48A C56G G71U G117C | -6.21
155 | A37C G93U A111G | -2.63
156 | G36C C49U C101G A119U | -3.31
157 | G36C C79G C98U C115U C124U | -6.21
158 | A37U A66U | -1.5
159 | G36U C72G C102U A119U | -4.07
160 | A37C A68G U78C C82U U133G | -3.87
161 | A37U A74U A121C | 1.55
162 | A37C G45U G51U C73U C124G | -3.87
163 | A37C C72U | 0.162
164 | G36U C123A | -0.268
165 | G36U C123G | 0.712
166 | G36A G61U U87C C123G | 0.936
167 | G36C G52A | -1.54
